Laboratory results taken from US20120134997A1 (COMPUGEN, published 2012).

Molecular target: T1, B7H4-Ig (R&D Systems, Inc. cat.#4206-B7) (mouse, UniProt Q7TSP5 29-256)
T1 construct: Bought reagent; also called Recombinant mouse B7-H4 protein (R&D Systems, CAT #4206-B7); not shown: Ig part of the bought fusion; not described
T1 sequence (looked up): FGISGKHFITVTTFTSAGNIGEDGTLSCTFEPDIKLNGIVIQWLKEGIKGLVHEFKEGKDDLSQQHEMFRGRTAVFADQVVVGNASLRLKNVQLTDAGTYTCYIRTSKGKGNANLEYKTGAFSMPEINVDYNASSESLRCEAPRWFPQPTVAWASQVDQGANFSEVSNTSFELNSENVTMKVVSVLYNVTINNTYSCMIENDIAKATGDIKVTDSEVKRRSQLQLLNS
Test: BIAcore 3000 surface plasmon resonance; Fc fused AI216611 ECD (SEQ ID NO:104) immobilised directly on a CM5 chip (400-500 RU), B7H4-Ig injected at 5 and 10 µM, empty flow cell subtracted
Experimental: Solution containing two different concentrations of B7H4-Ig (5 and 10 micro molar) was injected. As control, the solutions were also injected onto an empty flow cell with no ligand immobilized.
Data was analyzed using BIAevaluation software ([…].). A zero baseline level was obtained by subtracting the background responses from injection of the analytes through a control flow cell with no ligand immobilized.

B1: AI216611_T0_P0_ECD_mFc (Fc fused AI216611 ECD, SEQ ID NO:104) (Fc fusion)
chain: LQSQGVSLYIPQATINATVKEDILLSVEYSCHGVPTIEWTYSSNWGTQKIVEWKPGTQANISQSHKDRVCTFDNGSIQLFSVGVRDSGYYVITVTERLGSSQFGTIVLHVSEILYEDGSENLYFQGSGEPRGPTIKPCPPCKCPAPNLLGGPSVFIFPPKIKDVLMISLSPIVTCVVVDVSEDDPDVQISWFVNNVEVHTAQTQTHREDYNSTLRVVSALPIQHQDWMSGKEFKCKVNNKDLPAPIERTISKPKGSVRAPQVYVLPPPEEEMTKKQVTLTCMVTDFMPEDIYVEWTNNGKTELNYKNTEPVLDSDGSYFMYSKLRVEKKNWVERNSYSCSVVHEGLHNHHTTKSFSRTPGK
notes: also called AI216611-ECD-Fc
B1: binds.
